The DeepSol protein solubility set

Assay: soluble on expression in E. coli; label from the status in PepcDB or PDB records
With “MGSDKIHHHHHHMKQAEEVIHPEALSGTGIMTISREPVVFHCNHYNRFLQLVIEDCHYIDREPILVGSATEVSFRQLRTAFREHPEWSVANRLKYAESMYRFCGFGDLPLGALPHSAEPEFVLVENHSHYGTALRLNYGKRRWPGEHFDLGYAIGALSAIYGQPYGGKIDATALSTGAETTRFHLHLRNSGDRFPLDIPDIPQAVLPQGADQVPPRHIGLHIDEDAIMTAVGTLPLTGDPDGLIPAFGVYLTRHYADYYNLVSFRFERALQEALNTHRYLGEMLWYEYPTLFYYKEKFEHLQGQALARTLLMEAGHICGFNTMGGIMRSDPWYQLIVPQLQCREDWLSGIIACINALGWGVWRIQEIIPNERLILRAWYPYESLGHLRAFGPADHPIDYLMTGIGSSLMNLLYTADITTRPDLTLEFYYQVNRSKAGFWARQTRCMAMGDPYSEVVVERNIL” the “soluble on expression in E. coli” value was “not soluble”.
In the case of “MRNIEEDLHKNEEEDPAPEVDDTDIPVDPLLTLLYIRHTLTSPWSSSEERDTAKAAMMEEMEKHNMAPYIRLVCEALGVPLDESKLAEMDAINAKKVAAFDARLKDAVDNLGDTEVRDVLQAKCDHYARIGDLEMCMKTNEECAAKTLATGPKLDLYFQRIRLGIAFSDNDIAAKGITDAHRLMKDGDWERRNRLRVYEGIYHVFIRDFQRGSTLLLDSITTFAAGELLTFQDFVFITVVASLPVLSRPELRKRIVYSPEVNRTGVDDVRELVNSIYDCQYNKVFPNLEVVCQHLRKVVYLSPHVSYFFREMRVLIFTQFLDSYSSVTLESMGAAFGIPVPALDSMLCTLISNERIACKVDRVDGSVETYRGDTTNFDYHRIVKSGDLLLNRIQKLSRLVDM”, the “soluble on expression in E. coli” value is reported as “soluble”.
In the case of “MSLDSYRTARLMQEGVTYPVIVRPHNQILENRINRIIRETAEELLPSGRYRTMNIITAASEYETTVNKNEILSIRFENYYYPEMMASGITVVRAVTLNLVTGRRYRLKDLFIPGIDYEDYLNRLIERQIEERDIPLINDFPGITGNEVFYLTEGELVIVYQRYELTPGYYGVLEFEIPYEELQPLIDETSPIYMIAQNSEGHHHHHH”, the “soluble on expression in E. coli” value is reported as “soluble”.
With “DERKRQESLIQSMFMPREILRASLSDVDLNDDGRIKAIRFAERFVAEYEPGKKMKGLYLHGSFGVGKTYLLAAIANELAKRNVSSLIVYVPELFRELKHSLQDQTMNEKLDYIKKVPVLMLDDLGAEAMSSWVRDDVFGPILQYRMFENLPTFFTSNFDMQQLAHHLTYSQRGEEEKVKAARIMERIRYLAYPIEITGPNRR” the “soluble on expression in E. coli” value was “soluble”.
In the case of “MTYCLAIKVDQGLVFASDSRTHAGVDYASVYSKMYRFDLHSDRLMIVLAAGNLATTQAVINLIRRDLENPGALYNLNTVAYLYDAASYIGETSVRVQEQHASAMQRCGISGEASFILGGQIQGQPPEIYLIYPQGNYITVSPDNPYLQIGETKYGKPILDRMIAPATTLEDAARCALVSIDSTMRSNISVGPPVEVAIYRRNSFVVGHYLHLDYSSPLYALIQKQWAEGIRNAFTLLPRFEWEDGGSIGSEQSQLEHHHHHH”, the “soluble on expression in E. coli” value is reported as “not soluble”.
In the case of “MSLNRFTKTSQGRSWNTGNGSPDAICFAVDKPGIVVVGFAVYGGGGIHEYELEVLVDDSEHAGDSTHSHRWTSLELVKGTYTTDDSPSDIAEIRLDKVVPLKENVKYAVRLRNYGSRTANGDGGMTTVQCPDGVTFTFSTCSLSSNGTNQTRGQIPQILYYRSEFDGDLQSQLLSKANEEDKNCSRALSVVSTVVRAAKDLLHRALAVDADEGHHHHHH”, the “soluble on expression in E. coli” value is reported as “not soluble”.
For “MGHHHHHHSHMDALSPSPAIPSNTDYPGPHSFDVSFQQSSTAKSATWTYSTELKKLYCQIAKTCPIQIKVMTPPPQGAVIRAMPVYKKAEHVTEVVKRCPNHELSREFNEGQIAPPSHLIRVEGNSHAQYVEDPITGRQSVLVPYEPPQVGTEFTTVLYNFMCNSSCVGGMNRRPILIIVTLETRDGQVLGRRCFEARICACPGRDRKADEDSIRKQQVSDSTKNGDGTKRPFRQNTHGIQM”, the “soluble on expression in E. coli” value was “not soluble”.
With “MGSDKIHHHHHHMTNAAKTGVERTYEYKERINGILGMMEQAPAEQRNPVLEGLLRLIMETNERTIDCAENGKPFVSTWYGNAPEILTAMDIHFIVPVFDILLHEYFTDLYDVKEADKISLPDDICSLIRFGAYAIENKLLPRPTAIISMLEPCDAELMLHQYYQSSEHWGGVPTFGLDPAYGSTDEDFMYFAGELKRLIHFLVEITGQKYDVDKLRKVVAETNTQYELWAEYNELRRVTPCPHGSFQGSVPLWTLTQFISSGDPRATELIRMMIMDAEAKVKAGIGAVPNEQIRILWADLAPQWGDLLAPWLAEEWGANVVMDYQGYSPYTHIDTTSEDTMLYGLARRALHEVPMIRQGRGTVEVMIEDMTRIIKDYTINCVFWPGHMGHKDVSGSVHFMQELCRSLNVPLLCLTTSLFDERYTPLDKVKQQMSEFFEATGWSKNSST” the “soluble on expression in E. coli” value was “not soluble”.
In the case of “MSLKNTTIADVAAAADVSVTTVSRYLNGNYQKMSAATKQRIKETIATLHYAPKASARKMRQDHSQLIGVVVGDIANVFSSLLFKGIYDVLQPAGYDVLLMNANNTATTEHGELTRLAAQQVDGIILQPSAATAAAYAGLTIPTIIVDRQLPNSPLAQVLSSNFDASYQLGQHLREQGYRRLITVGRAVAPHTAQTDRLAGLTATGLSVIHLDMTSHGAPWLTQQLRQYQQAPDKPVIISLMGPLLFEILASLKAAHLHFPADVGLVSFDDWQWSQYVNDGIYLLQQQPALMGQLAATTLLHQLSTTPTTMTQYVPVAPVVKPSLEGHHHHHH”, the “soluble on expression in E. coli” value is reported as “not soluble”.
In the case of “MRILKIYENKGVYKVVIGEPFPPIEFPLEQKISSNKSLSELGLTIVQQGNKVIVEKSLDLKEHIIGLGEKAFELDRKRKRYVMYNVDAGAYKKYQDPLYVSIPLFISVKDGVATGYFFNSASKVIFDVGLEEYDKVIVTIPEDSVEFYVIEGPRIEDVLEKYTELTGKPFLPPMWAFGYMISRYSYYPQDKVVELVDIMQKEGFRVAGVFLDIHYMDSYKLFTWHPYRFPEPKKLIDELHKRNVKLITIVDHGIRVDQNYSPFLSGMGKFCEIESGELFVGKMWPGTTVYPDFFREDTREWWAGLISEWLSQGVDGIWLDMNEPTDFSRAIEIRDVLSSLPVQFRDDRLVTTFPDNVVHYLRGKRVKHEKVRNAYPLYEAMATFKGFRTSHRNEIFILSRAGYAGIQRYAFIWTGDNTPSWDDLKLQLQLVLGLSISGVPFVGCDIGGFQGRNFAEIDNSMDLLVKYYALALFFPFYRSHKATDGIDTEPVFLPDYYKEKVKEIVELRYKFLPYIYSLALEASEKGHPVIRPLFYEFQDDDDMYRIEDEYMVGKYLLYAPIVSKEESRLVTLPRGKWYNYWNGEIINGKSVVKSTHELPIYLREGSIIPLEGDELIVYGETSFKRYDNAEITSSSNEIKFSREIYVSKLTITSEKPVSKIIVDDSKEIQVEKTMQNTYVAKINQKIRGKINLE”, the “soluble on expression in E. coli” value is reported as “soluble”.
In the case of “MGSDKIHHHHHHMGTVPTPAGLAFFQQVQLALRHLDHAVDSAHSSRLSGHVTVGFSPSVAAVIGTHFLKLMRNRYPDIKVRLIEGLSGDLKALVNARQLDVAIIFSDDVDPQWAIQPLVKEQMFLISPKEVLNQYHLESCIDNQTITHSQLKELPLILPSQRHGLRLLLEQKIHQLKVAYEIDGLHLLMESISQLEMATIQPAGASLNSRQDLCLLRVVEPAIERINYLISLSEEELSPATLATKVVIRACVANLINEKRWPGAELINT”, the “soluble on expression in E. coli” value is reported as “not soluble”.
In the case of “SLPHIITRKVISVEQNWLQQLANAISDPLQLLQQLEIDPSPWQDGFEARKLFAQRVPQSFVDRMQKGNPADPLLRQVLPLSAEFEIHPGYSHDPLDEQNNTVPGLLHKYKNRCLLIVKGGCAINCRYCFRRHFPYEDNKGGKSAWQQSLDYIAQNPQLNEVIFSGGDPLMAKDHEIAWLMERIAAIPHIKRLRIHSRLPVVIPARITDELVELFAQTRLQVLLVTHINHANEINLELKQQMARLRAVNVTLLNQGVLLKGVNDTVDAQVSLSETLFDAGILPYYLHVLDKVQGAAHFYVSDDKARQIMAGLIEQVSGYLVPKLTREIGGRPSKTPLDLHLE”, the “soluble on expression in E. coli” value is reported as “not soluble”.
With “MKATSEELAIFVSVVESGSFSRAAEQLGQANSAVSRAVKKLEMKLGVSLLNRTTRQLSLTEEGERYFRRVQSILQEMAAAESEIMETRNTPRGLLRIDAATPVVLHFLMPLIKPFRERYPEVTLSLVSSETIINLIERKVDVAIRAGTLTDSSLRARPLFNSYRKIIASPDYISRYGKPETIDDLKQHVCLGFTEPASLNTWPIACSDGQLHEVKYGLSSNSGETLKQLCLSGNGIACLSDYMIDKEIARGELVELMADKVLPVEMPFSAVYYSDRAVSTRIRAFIDFLSEHVKTAPGGVMPIS” the “soluble on expression in E. coli” value was “not soluble”.
For “MQFNYDVIVVGAGHAGCEAAAAAAKLGSQVLLITPDMNKIAQMSCNPAVGGIAKGQIVREIDALGGRMGIVTDATAIQFRMLNRSKGPAMWSPRAQSDRMRFMEAWRDIVEHEPNLYMWQDSVRCLSIRQGAVAGVVTALGVEFQARTVVLTTGTFLGGVMHFGERMIEGGRIAEPAFHGITEQLRDLGFRTDRMKTGTPARIDGRSIDFSLTTEQSGEEDHHRFSYMDTPRRVLRQRSCYALYTNPECHEILSKGLDRSPLYNGQIQSIGPRYCPSIETKIVTFADKEMHQLFLEPEGETSNEFYLNGFSSSLPLEIQLEALKAIPALRHVHIYRPGYAIEYDFFDPTQLRHTLETKPVKGLFFAGQINGTTGYEEAAGQGLIAGINAHLHCHGAGEFTLGRDEAYIGVLIDDLVSKGVDEPYRMFTSRAEYRILLRQDDADMRLTPKAEAIGLADSRRSELLREKQVFRDKLIDFTHKFSLKPDLINPHLESAGHLPLKQGIKLYDLLLRPQIGMNEVCSMVPSLQRIVEEIPASRREEIVEAAEILIKYDGYIKRERALADKINRLESIRLPQHVDYMQMQSLSTEARQKLTSIRPETIAQASRIPGVSPHDVSILLVLCGR”, the “soluble on expression in E. coli” value was “not soluble”.
For “MRICSDQPCIVLLTEKDVWIRVNGKEPISLKANHMALLNCENNIIDVSSLNNTLVAHISHDIIKDYLRFLNKDLSQIPVWQRSATPILTLPCLTPDVFRVAAQHSMMPAETESEKERTRALLFTVLSRFLDSKKFVSLMMYMLRNCVSDSVYQIIESDIHKDWNLSMVASCLCLSPSLLKKKLKSENTSYSQIITTCRMRYAVNELMMDGKNISQVSQSCGYNSTSYFISVFKDFYGMTPLHYVSQHRERTVA”, the “soluble on expression in E. coli” value was “soluble”.
In the case of “MYTEYQPSRLLAPYIDNYWEFKGTPEYGMRIHILPDGCTDFIFTLGEAVSKVKEETLVMQPYRSYFVGPMTKYSELVTYAEFVHQFGVRFLPCGLSGFTKLPLHEFANYRISTNEMQAVFDSTFIERLCEQNDVRGRIQVVEEYLLAYLAHNYQPVDTQVAAAVNIINQSAGKRSVRSLMDEVCLCQRHFERKFKHNTGFTPKEYSRIVKFKNAVELLRNTTSVNLLTTAIDAGYYDLAHFSKEIKTLSGNTPSSFLSLTVPEDITLTYIEP”, the “soluble on expression in E. coli” value is reported as “soluble”.
With “MGHVVKVALLGLGEVGEKFAEHFLEKIQEDRANVEIVAVAHRDLESPVALGFVHSKVPVFKDAMEVVTLGAKVDIIFDLTGDPEVRRKLRIALQESHNQHTVIAPEVVAHLLWNFFGEGELPRSNRTGY” the “soluble on expression in E. coli” value was “soluble”.
For “GVTGADGTTTFTLKQDQTTGLKTELTAALDSSSSTKSTLPVVFTVLTSPDSPKAKFWGHMAETATGDDGLIYRRPLLRDENSATTSIGTLVEEGEAWSTFPSGQANDTSINGCGAEYVPTDNELRAIYAHQGSSALHDAIGWPVSRFYISNTVADTFTQTFTYDVVSLKTGDETQMPSSGGALLSCR”, the “soluble on expression in E. coli” value was “not soluble”.
In the case of “MRGSHHHHHHTDPALRAPIIQSVERALQILDLFNEQATELKITDISKLMGLSKSTLHSLLKTLQLHGYIDQNPENGKYRLGMKLVERGHFVVGSIDIRQKAKGWLTELSRRTGQTTHLGILDGREGVYIEKIEGKLAAIAYSRIGRRLPVHATAIGKVLIAWLGEAELNALLEGYQYTTFTPATLASREALMSALAQTREQGYALDSEENEQGVRCVAVPVWNHESRVIAALSLSTLTSRVDDAELANFREQLQQAGLALSRALGYPAGLCGR”, the “soluble on expression in E. coli” value is reported as “soluble”.
With “MSEEKPLKVSYSKQFVRDLTDLAKRSPNVLIGSKYITAIHCLLNRLPLPENYQDHALVGEWKGYRDCHIQGDLVLIYQYVIQDEFDELKFSRLNIHSQTALK” the “soluble on expression in E. coli” value was “not soluble”.
